Measured values as given in the supplement of paper PMC12042874.
± gives the uncertainty stated by the source.

Assay: amyloid nucleation score (Sup35N fusion, yeast selection) (log enrichment); library NNK2; higher = more nucleation; inactive = no reads after selection
In short: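 Growth for 7 days at 30°C on medium lacking adenine and uracil followed a 24-hour induction with 100 μM copper sulfate of psi-negative yeast expressing peptides of 20 random codons fused to Sup35N. Input and output plasmid inserts were sequenced with Illumina, and sequences with under 100 input reads were excluded. Nucleation score is the DiMSum log enrichment of output over input reads, centred on the mode score of non-aggregating sequences.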

Row | Substance | amyloid nucleation score
1 | GYCLSVTSR | 0.641 ± 0.74
2 | LVSYV | -0.873 ± 0.76
3 | KVTARPFRQC | 4.997 ± 0.045
4 | NCWVVSQYTVVN | -0.77 ± 0.79
5 | INSITKSVGGQRGARRY | 2.25 ± 0.21
6 | FCYIDGLGYSRFNMHAEPSG | -0.326 ± 0.48
7 | TSNRTTNSLLMCDKLRNTSV | -0.345 ± 0.25
8 | HWSLGSYFGYNFGR | 5.67 ± 0.062
9 | SIIIVKFLIGWRILWRSLTY | inactive
10 | LSVFVSGAPQIKLSNMVVKN | -0.348 ± 0.76
11 | MGPDMYVCKVWLGAVAYEMG | 1.95 ± 0.4
12 | GDPLS | 0.162 ± 0.28
13 | DDWVSGEEFGRSRNLNHFPD | -1.56 ± 0.48
14 | NSAKKLRRPGATCPGQDGYT | 0.864 ± 0.41
15 | STLTFIVSSSDEGWSHYREA | 3.79 ± 0.07
16 | SGWQFQSWRVQRMWLVELSC | 0.494 ± 0.49
17 | SMRDEVYIRFFMNRILSVRS | -0.803 ± 1
18 | KVALL | -0.257 ± 0.76
19 | TFLIGTV | -1.01 ± 0.5
20 | TGLAIGCFLVCSVLYGDR | 3.17 ± 0.13
21 | YNGLEVAYLF | 5.43 ± 0.062
22 | HWKAFYL | 1.13 ± 0.59

Row | Substance | amyloid nucleation score
23 | LRGVLLSETRCAKEGLPTLS | 0.365 ± 0.36
24 | CRGVNVHDSSW | -0.321 ± 0.22
25 | LTRCMCPLGDIMRHKEKPEM | -1.25 ± 1.1
26 | SFRKILESWKDAYLYDPALT | 0.113 ± 1.1
27 | ALFIEISPLTINLFTNAKSL | -1.06 ± 0.76
28 | VDHYTETTRL | 0.493 ± 0.24
29 | CSLMNNRVHFVWSHRRMSGT | 0.276 ± 1
30 | DHNGVKSTSHKSSFFMSTGR | 0.056 ± 0.39
31 | SGMISRRHAYGAEVELVGSN | 1.17 ± 0.43
32 | DGFRTYIVRWEATVANSLVV | 0.736 ± 0.52
33 | LEGFTRA | -0.909 ± 0.36
34 | SRNTVLYISLSFLTPYISCC | 8.221 ± 0.028
35 | ALCKMQLITSSYQGPATEDL | -0.168 ± 0.76
36 | SFVNFCRLRASLCAVAISTT | inactive
37 | YSYEHTRWTSLGGWHLR | 4.66 ± 0.069
38 | IDNEMYFAHGIRGDSLL | inactive
39 | GCRDMIWVGL | inactive
40 | DSSIAYFIGVLASIGADEDR | 6.452 ± 0.061
41 | NYSVWVIPVFMDEHIVLFMY | 5.8 ± 0.071
42 | YAVVFHVPLLV | 5.11 ± 0.079
43 | LMSKKGNGIGLEQPLLSSDT | -0.778 ± 1.1
44 | VFIVL | 1.65 ± 0.41

Row | Substance | amyloid nucleation score
45 | KITAGSGVL | 0.904 ± 0.81
46 | LKNFNLRIMTTPLNCNCNTY | -0.434 ± 0.29
47 | FFLSNWAAF | 0.234 ± 0.55
48 | SRYACVRLICQVWPLWVGSG | 0.875 ± 0.43
49 | LLLHWRSWMRKCHVITCWSS | 0.436 ± 0.35
50 | EYVVSLHVFRLHIKLKIFRV | -0.09 ± 0.65
51 | DSEGSA | inactive
52 | FAPRSKPLRSLFEGLLF | 0.495 ± 0.57
53 | TMQSWFSAFYLVVDMPTRYC | -0.232 ± 0.29
54 | RSKHQKRSALCYFESGVTAV | 0.663 ± 0.37
55 | FGNGDKSGMIGINVNLLCRM | 5.73 ± 0.034
56 | TILWEVVGAL | 0.091 ± 0.17
57 | NVDRRQGETWSNPYDLMRRL | 0.291 ± 0.19
58 | DCSLELVNRRGSGIVQCAGY | 1.1 ± 0.38
59 | FCRSYCVLVYLWSPYVTGSK | 0.349 ± 0.5
60 | FLWVLIQANYLLTEMELSSG | -0.447 ± 1.1
61 | FFLNVFDIMRILLYN | inactive
62 | ARKYLRCGSACVKVEYF | 3.51 ± 0.047
63 | RERCC | inactive
64 | LSFRGDSR | 0.243 ± 0.26
65 | DLRSWVFWNTSAYYIFSTDS | -1.32 ± 0.36
66 | WMSFTHLLNTIAVMSYLTVL | -0.249 ± 0.25

Row | Substance | amyloid nucleation score
67 | SCSWCMLVPRGGVGVPKG | 0.335 ± 0.22
68 | FTAMNIGNACMESQALPWNL | 0.198 ± 0.65
69 | TSPRRACWSIQSDDWFGFEW | 1.33 ± 0.38
70 | LASMMPSKIPN | inactive
71 | STIQGIKNRSYRHSSANRVN | 0.333 ± 0.61
72 | GNRVYGDYCFYTTMGWASW | -0.379 ± 0.55
73 | NMMGMAYSV | 0.063 ± 1.1
74 | VYKFEKESLLTLSHIHKVAS | -0.012 ± 1.1
75 | NKFDRFMFPRVR | -0.98 ± 0.35
76 | VNMLTGLSKDK | -0.142 ± 0.23
77 | NRRMRKAEPLP | 0.644 ± 0.81
78 | GLSAMDDRMVPRIIYWIRLW | -0.217 ± 0.36
79 | IRCVGRVVFCCNFS | 9.965 ± 0.078
80 | VCVRTTWRKDGSISCTHKSP | 0.5 ± 0.18
81 | DRMQVRSR | 0.944 ± 0.27
82 | FAIHLKLMYVGTDFSNVRDI | -1.15 ± 0.76
83 | YVRRVASGAFCMKFRSTIRR | 1.98 ± 0.084
84 | GEISIGMNLTGEKTSSSGFK | -0.679 ± 1.1
85 | LDIITGLSSISGTHIFGSSP | -0.627 ± 0.78
86 | WQGEPHPIHFMLSFVLMGW | 0.957 ± 0.21
87 | NWGWSAILKPLRFAVFRPWN | 0.336 ± 0.6
88 | HTAMCAVSGFRNIWSKPVKF | -0.817 ± 1.1
